Laboratory results published in PMC4234381, “Evolution of Acyl-Substrate Recognition by a Family of Acyl-Homoserine Lactone Synthases” (PLoS ONE, 2014).

Tests used:
[1] = biological target: Sfp (Bacillus subtilis, UniProt P39135); experiment: enzymatic transfer of octyl-phosphopantetheine to apo-ACP, mass spectrum of product; assay type: biochemical; conditions: co-substrate E. coli apo-AcpP; preparative synthesis, 20:1 acyl-CoA to ACP
[2] = biological target: BjaI (Bradyrhizobium diazoefficiens, UniProt Q89VI2); experiment: DCPIP microplate assay
[3] = substrate: CC(C)CC(=O)SCCNC(=O)CCNC(=O)[C@H](O)C(C)(C)COP(=O)(O)OP(=O)(O)OC[C@H]1O[C@@H](n2cnc3c(N)ncnc32)[C@H](O)[C@@H]1OP(=O)(O)O; experiment: purified protein; conditions: 500 µM SAM, 1 µM BjaI, HEPES, final pH 7.3
[4] = substrate: C[S+](CC[C@H](N)C(=O)O)C[C@H]1O[C@@H](n2cnc3c(N)ncnc32)[C@H](O)[C@@H]1O; experiment: purified protein; conditions: 250 µM isovaleryl-CoA, HEPES, final pH 7.3

Chain of Sfp (P39135 whole entry): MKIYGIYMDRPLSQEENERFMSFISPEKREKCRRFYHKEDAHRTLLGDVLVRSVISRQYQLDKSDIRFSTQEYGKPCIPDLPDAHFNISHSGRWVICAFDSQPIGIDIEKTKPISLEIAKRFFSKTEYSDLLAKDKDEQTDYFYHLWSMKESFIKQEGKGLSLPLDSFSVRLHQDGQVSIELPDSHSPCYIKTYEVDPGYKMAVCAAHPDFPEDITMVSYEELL

CCCCCCCCSCCNC(=O)CCNC(=O)[C@H](O)C(C)(C)COP(=O)(O)OP(=O)(O)OC[C@H]1O[C@@H](n2cnc3c(N)ncnc32)[C@H](O)[C@@H]1OP(=O)(O)O [octyl-CoA sulfide]
enzymatic transfer of octyl-phosphopantetheine to apo-ACP, mass spectrum of prod [1]: enzymatic transfer of the alkyl-PPant to apo-ACP using Bacillus subtilis Sfp PPant transferase

CC(C)CCSCCNC(=O)CCNC(=O)[C@H](O)C(C)(C)COP(=O)(O)OP(=O)(O)OC[C@H]1O[C@@H](n2cnc3c(N)ncnc32)[C@H](O)[C@@H]1OP(=O)(O)O [isopentyl-CoA]
Ki [2]: 21 ± 1 µM

B1: BjaI (Bradyrhizobium diazoefficiens USDA 110) (protein)
chain: MIHAISAVNRHLYEDVLEQHFRLRHDIFVEERHWETLRRPDGREVDSYDDEDTVYLLALEGRRVVGGHRLYPTTKPSMMSEVFPHLAAVRGCPSDPLIWEWSRYFVVRDRRDGALNLQLMAAVQEFCLDQGIAQVSAIMETWWLPRFHEAGFVVTPLGLPALVENAWTMAATVDIRRQTLDVLHDRIGMPSIVQQDGPRLDAVARANLCGLAAAQRKSA
Km [3]: 7.0 ± 0.5 µM
kcat [3]: 0.021 ± 0.03 s⁻¹
kcat/Km [3]: 3000 M⁻¹ s⁻¹
Km [4]: 39 ± 4 µM
